# Results published in patent CN113999308A (SHENZHEN PEOPLES HOSPITAL, dated 2022).
# T1: CDH17蛋白细胞外段1~3结构域 (recombinant CDH17 extracellular domains 1-3) (human, UniProt Q12864 23-340, limits assumed)
# T1 construct: domain: 细胞外段1~3 结构域; purified on Ni resin, so probably His-tagged, but the tag is not described; also called CDH17 1-3D; CDH17 1~3结构域蛋白
# T1 sequence (looked up): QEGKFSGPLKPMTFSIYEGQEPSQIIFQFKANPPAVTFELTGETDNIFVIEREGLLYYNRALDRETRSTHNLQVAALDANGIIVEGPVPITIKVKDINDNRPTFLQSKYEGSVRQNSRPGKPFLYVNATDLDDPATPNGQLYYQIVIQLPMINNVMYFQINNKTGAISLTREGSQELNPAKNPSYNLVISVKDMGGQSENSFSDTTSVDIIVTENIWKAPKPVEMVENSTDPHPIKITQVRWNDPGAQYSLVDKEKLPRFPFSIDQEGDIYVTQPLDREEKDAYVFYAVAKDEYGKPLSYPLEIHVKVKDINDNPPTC
# B1: Nb193纳米抗体 (Nb193 nanobody) (VHH)
# VHH: AVQLVESGGGLVQAGGSLRLSCVASGSTLERYAVYWYRQPPGKERELVAGIMRGGNINYADSVKGRFTISKDYAKNTLILQMNSLKPEDTAVYYCNAGGSRFGYWGQGTQVTVSS
# notes: From a naive alpaca phage display nanobody library; Expressed in E. coli with HA tag and His tag, about 15 kDa; the tag piece is put last only for want of better; not shown: HA tag and His tag fused to the nanobody (pET-14B, E. coli)
# Target: T1, CDH17蛋白细胞外段1~3结构域 (recombinant CDH17 …)
# Assay: SPR (Biacore), purified antigen on the chip, nanobody as analyte (Fig. 5E)
binder,measurement,value
B1,Kd,17.6 nM
